# Results reported in patent EP2363413A1 (YISSUM RESEARCH DEVELOPMENT COMPANY OF THE HEBREW …, dated 2011).
# T1: staphylococcal enterotoxin B (SEB) (Staphylococcus aureus, UniProt P01552 28-266)
# T1 sequence: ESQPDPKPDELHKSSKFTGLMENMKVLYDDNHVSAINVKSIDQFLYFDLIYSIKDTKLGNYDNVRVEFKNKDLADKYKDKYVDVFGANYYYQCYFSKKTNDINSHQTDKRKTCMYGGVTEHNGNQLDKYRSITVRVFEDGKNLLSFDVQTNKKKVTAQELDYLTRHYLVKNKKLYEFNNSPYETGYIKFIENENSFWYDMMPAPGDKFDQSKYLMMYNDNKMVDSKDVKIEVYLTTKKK
# B1: soluble ICOS (sICOS), human ICOS extracellular domain fused to His6-tagged human IgG1 Fc (Fc fusion)
# chain (part 1 of 2): EINGSANYEMFIFHNGGVQILCKYPDIVQQFKMQLLKGGQILCDLTKTKGSGNTVSIKSLKFCHSQLSNNSVSFFLYNLDHSHANYYFCNLSIFDPPPFKVTLTGGYLHIYESQLCCQLKF
# chain (part 2 of 2): HHHHHH
# notes: range 21-141
# Assays:
# [1] = target: staphylococcal enterotoxin B (SEB) (Staphylococcus aureus) (UniProt P01552); assay: SPR (BIAcore 3000, 25°C), SEB immobilized on CM5 chip, sB7-2 injected
# [2] = target: soluble CD28 (sCD28), human CD28 extracellular domain fused to His6-tagged human IgG1 Fc (human) (UniProt P10747); assay: SPR, format not stated (sCD28 was among the immobilized ligands)
# [3] = target: T1, staphylococcal enterotoxin B (SEB); assay: SPR (BIAcore 3000, 25°C), SEB immobilized on CM5 chip, soluble receptor injected
molecule,measurement,setting,value
"soluble B7-2 (sB7-2), human B7-2 extracellular domain fused to His6-tagged human IgG1 Fc (from UniProt P42081 20-239) (Fc fusion)",Kd,[1],0.025 µM
"anti-CD28 monoclonal antibody MAB342, clone 37407.111 (R&D Systems)",Kd,[2],0.002 µM
B1,Kd,[3],0.021 µM
